Reference: PMC6250052 (Neurobiology of disease, 2018)
Where two headings read alike, the source gives them in different places.

B1: purified hCypD protein (human Cyclophilin D) (enzyme)
chain: not shown
B2: glutathione S-transferase (GST)-tagged OSCP (human oligomycin sensitivity conferring protein) (natural protein, UniProt P48047 24-213, looked up)
chain: FAKLVRPPVQVYGIEGRYATALYSAASKQNKLEQVEKELLRVAQILKEPKVAASVLNPYVKRSIKVKSLNDITAKERFSPLTTNLINLLAENGRLSNTQGVVSAFSTMMSVHRGEVPCTVTSASPLEEATLSELKTVLKSFLSQGQVLKLEAKTDPSILGGMIVRIGEKYVDMSVKTKIQKLGRAMREIV

How the values were obtained:
Assay in all cases: pull-down
[1] = molecular target: B2
[2] = molecular target: B2; remark: listed apart in the source
Aβ peptide (ApexBio) [3] = molecular target: Aβ peptide (ApexBio)
Aβ peptide (ApexBio) [4] = molecular target: Aβ peptide (ApexBio); remark: listed apart in the source

Row | Binder | Kd [1] [nM] | Kd [2] [nM] | Kd (Aβ peptide (ApexBio) [3]) [nM] | Kd (Aβ peptide (ApexBio) [4]) [nM]
1 | B1 | 60 ± 1 | 100 ± 15 |  | 
2 | B2 |  |  | 88 ± 43 | 510 ± 71
